# Laboratory results published in publication PMC9164213 (Nature, 2021).
# B1: GsuCas4/Cas1 (Geobacter sulfurreducens type I-G Cas4/Cas1 natural fusion), tag cleaved (natural protein)
# chain: MAETDGSIPLIPVRMLNEHVYCPRLAYLMWVQGEFSHNEFTVDGVIRHRRVDAGGGVLPSETQEDSRIHARSVSLSSERLGITAKIDLVEGEGAYVSPVDYKRGKRPHVAGGAYEPERVQLCAQGLLLREHGFASDGGALYFVASRERVPVAFDDELIGRTLAAIDEMGRTALSGTMPPPLEDSPKCPRCSLVGICLPDEVRFLSHLSVEPRPIIPADGRGLPLYVQSPKAYVRKDGDCLVIEEERVRVAEARLGETSQVALFGNATLTTAALHECLRREIPVTWLSYGGWFMGHTVSTGHRNVETRTYQYQRSFDPETCLNLARRWIVAKIANCRTLLRRNWRGEGDEAKAPPGLLMSLQDDMRHAMRAPSLEVLLGIEGASAGRYFQHFSRMLRGGDGEGMGFDFTTRNRRPPKDPVNALLSFAYAMLTREWTVALAAVGLDPYRGFYHQPRFGRPALALDMMEPFRPLIADSTVLMAINNGEIRTGDFVRSAGGCNLTDSARKRFIAGFERRMEQEVTHPIFKYTISYRRLLEVQARLLTRYLSGEIPAYPNFVTR
# B2: GsuCas2 (Geobacter sulfurreducens Cas2), tag cleaved (natural protein)
# chain: MEHLYIVSYDIRNQRRWRRLFKTMHGFGCWLQLSVFQCRLDRIRIIKMEAAINEIVNHAEDHVLILDLGPAENVKPKVSSIGKTFDPILRQAVIV
# Biological target: the molecule itself
# Test: cryo-EM structure
row,Protein,stoichiometry N
1,B1,2
2,B2,2
